# Source: paper PMC12808825, “Structural and functional modulation of human kynurenine aminotransferase I enhances selenium-driven redox metabolism for cancer therapy” (Redox Biology, 2025)
# Target: the molecule itself
# Assay: SEC; size-exclusion chromatography after elution from the His Trap Nickel column; estimated apparent molecular weight 113 kDa
protein,measurement,value
"Human kynurenine aminotransferase 1 (hKYAT1), wild-type, recombinant (enzyme, human kynurenine aminotransferase 1 (KYAT1), wild type; The PDB entries are cited crystal structures of human KYAT1, not necessarily of this construct; also called KAT1; cysteine-S-conjugate beta-lyase 1; source: E. coli BL21, purified (His Trap Nickel column, size-exclusion chromatography)) MAKQLQARRLDGIDYNPWVEFVKLASEHDVVNLGQGFPDFPPPDFAVEAFQHAVSGDFMLNQYTKTFGYPPLTKILASFFGELLGQEIDPLRNVLVTVGGYGALFTAFQALVDEGDEVIIIEPFFDCYEPMTMMAGGRPVFVSLKPGPIQNGELGSSSNWQLDPMELAGKFTSRTKALVLNTPNNPLGKVFSREELELVASLCQQHDVVCITDEVYQWMVYDGHQHISIASLPGMWERTLTIGSAGKTFSATGWKVGWVLGPDHIMKHLRTVHQNSVFHCPTQSQAAVAESFEREQLLFRQPSSYFVQFPQAMQRCRDHMIRSLQSVGLKPIIPQGSYFLITDISDFKRKMPDLPGAVDEPYDRRFVKWMIKNKGLVAIPVSIFYSVPHQKHFDHYIRFCFVKDEATLQAMDEKLRKWKVEL",stoichiometry N,2
